Laboratory results as given in patent US20250339569A1 (3B PHARMACEUTICALS, published 2025).
Blank lines part the entries; values can stand above or below the binder they belong to. Starred links: 1 amine or outer side, 2 acyl side, 3 side chain; linkers in the order of their positions; H or OH if unused. Positions of bridges follow the written chain, without caps; N, C: chain ends. Non-standard residues stand in square brackets, D forms with d. Groups on a side chain read outwards from the residue. Primed or numbered codes have the meaning given here. *: point of attachment. Af3(4SaPy2Ac) = 3-amino-L-phenylalanine, ring amine acylated with (4-sulfamoylpyrazol-1-yl)acetic acid, NS(=O)(=O)c1cnn(CC(=O)Nc2cccc(C[C@H](N[*:1])C(=O)[*:2])c2)c1; Af3(Hsfu) = 3-amino-L-phenylalanine, ring amine acylated with 4-sulfamoylfuran-2-carboxylic acid, NS(=O)(=O)c1coc(C(=O)Nc2cccc(C[C@H](N[*:1])C(=O)[*:2])c2)c1; Aph(SaPr)″ = 4-amino-L-phenylalanine, ring amine acylated with 3-sulfamoylpropanoic acid, NS(=O)(=O)CCC(=O)Nc1ccc(C[C@H](N[*:1])C(=O)[*:2])cc1; Aph(SaPr) = 4-amino-L-phenylalanine, ring amine acylated by 3-sulfamoylpropanoic acid, NS(=O)(=O)CCC(=O)Nc1ccc(C[C@H](N[*:1])C(=O)[*:2])cc1; Af3(HO-Succinyl) = 3-aminophenylalanine with succinyl (free acid) on the ring amine, O=C(CCC(=O)[*:3])Nc1cccc(C[C@H](N[*:1])C(=O)[*:2])c1; Af3(MSAc) = 3-aminophenylalanine with 2-methanesulfonylacetyl on the ring amine, CS(=O)(=O)CC(=O)Nc1cccc(C[C@H](N[*:1])C(=O)[*:2])c1; Phe(3-NHCO(CH2)3SO2NH2) = N[C@@H](Cc1cccc(NC(=O)CCCS(N)(=O)=O)c1)C(=O)O; APAc″ = 2-(4-(amino)piperidin-1-yl)acetic acid, NC1CCN(CC(=O)*)CC1; DOTA = O=C(O)CN1CCN(CC(=O)O)CCN(CC(=O)*)CCN(CC(=O)O)CC1; PPAc = 4-carboxymethyl piperazine linker; mXylylene = c1cc(C[*:1])cc(C[*:2])c1; N4BzlCl = not defined here; 3Amb = NCc1cccc(C(=O)O)c1; 4Amb = NCc1ccc(C(=O)O)cc1; AGLU′ = not defined here; 4Amc = not defined here; APAc = not defined here; Inp′ = not defined here; Apr = not defined here; Cmp = not defined here; Dap = NC[C@H](N)C(=O)O; Nlys = NCCCCNCC(=O)O; Bn = c1ccc(C*)cc1

What was measured:
[1] = biological target: human carbonic anhydrase 9 (CAIX) (human, UniProt Q16790 38-459); assay: FACS competition on HT-29 cells, competitor tracer 3BP-2776; category A = pIC50 >8.0
[2] = biological target: T1, Fc-fusion protein of human carbonic anhydrase IX (human, UniProt Q16790 38-414); assay: SPR, captured hCAIX-Fc; t1/2 category A: >15.0 min
Description: (§1) Stock solutions of test compounds were prepared by dissolving each compound in DMSO. DMSO stock solution were diluted 1:1000 in Running Buffer without DMSO. […] SPR binding analyses were performed in Single Cycle Kinetic (SCK) mode at 25° C.
(§2) For each test compound, SPR raw data in the form of resonance units (RU) were plotted as sensorgrams using the Biacore™ T200 control software. The signal from the blank sensorgram was subtracted from that of the test compound sensorgram (blank corrected). The blank corrected sensorgram was corrected for baseline drift by subtracting the sensorgram of a SCK run without the test compound (running buffer only). […] Raw data and fit results were imported as text files in IDBS. The pKD value (negative decadic logarithm of dissociation constant) was calculated in the IDBS excel template.

[3] = biological target: T1, Fc-fusion protein of human carbonic …; assay: SPR, captured hCAIX-Fc; pKD category A: >8.0
Description: as §1, §2

B5: 3BP-3562 (peptide)
peptide: Ac-VYCE[Nlys](DOTA)DWLTWAC-NH2
modifications: linker 3-12 via mXylylene
- pKD [3]: > 8 pkd
- t1/2 (half-life of the complex, SPR) [2]: > 15 min

B9: 3BP-3565 (peptide)
peptide: Ac-VYCE[dP]DWLTWSC-NH2
modifications: linker 3-12 via mXylylene
SMILES: CC(=O)N[C@H](C(=O)N[C@@H](Cc1ccc(O)cc1)C(=O)N[C@H]1CSCc2cccc(c2)CSC[C@@H](C(N)=O)NC(=O)[C@H](CO)NC(=O)[C@H](Cc2c[nH]c3ccccc23)NC(=O)[C@H]([C@@H](C)O)NC(=O)[C@H](CC(C)C)NC(=O)[C@H](Cc2c[nH]c3ccccc23)NC(=O)[C@H](CC(=O)O)NC(=O)[C@H]2CCCN2C(=O)[C@H](CCC(=O)O)NC1=O)C(C)C
- pKD [3]: > 8 pkd
- t1/2 (half-life of the complex, SPR) [2]: > 15 min

B11: 3BP-4128 (peptide)
peptide: {DOTA-APAc}-VYCE[dP]C(Bn)WLTWSC-NH2
modifications: linker 3-12 via mXylylene; not fully specified; reading uncertain
- pKD [3]: > 8 pkd
- t1/2 (half-life of the complex, SPR) [2]: > 15 min

B12: 3BP-3478 (peptide)
peptide: Ac-VYCE[dP]DWLTWE([Apr-DOTA])C-NH2
modifications: linker 3-12 via mXylylene; reading uncertain
- pKD [3]: > 8 pkd
- t1/2 (half-life of the complex, SPR) [2]: > 15 min

B13: 3BP-3432 (peptide)
peptide: {DOTA-APAc″}-VYCE[dP]DWLTWAC-NH2
modifications: linker 3-12 via mXylylene
- pKD [3]: > 8 pkd
- t1/2 (half-life of the complex, SPR) [2]: > 15 min

B14: 3BP-4121 (peptide)
peptide: {DOTA-APAc}-VYCE[dP]DWLE(AGLU′)WSC-NH2
modifications: linker 3-12 via mXylylene; reading uncertain
- pKD [3]: > 8 pkd
- t1/2 (half-life of the complex, SPR) [2]: > 15 min

B15: 3BP-4122 (peptide)
peptide: {DOTA-APAc}-VYCE[dP]DWLTWEC-NH2
modifications: linker 3-12 via mXylylene; not fully specified (residue 11); reading uncertain
- pKD [3]: > 8 pkd
- t1/2 (half-life of the complex, SPR) [2]: > 15 min

B16: 3BP-3282 (peptide)
peptide: Ac-VYCE[dP]DWLTWAC-NH2
modifications: linker 3-12 via mXylylene
SMILES: CC(=O)N[C@H](C(=O)N[C@@H](Cc1ccc(O)cc1)C(=O)N[C@H]1CSCc2cccc(c2)CSC[C@@H](C(N)=O)NC(=O)[C@H](C)NC(=O)[C@H](Cc2c[nH]c3ccccc23)NC(=O)[C@H]([C@@H](C)O)NC(=O)[C@H](CC(C)C)NC(=O)[C@H](Cc2c[nH]c3ccccc23)NC(=O)[C@H](CC(=O)O)NC(=O)[C@H]2CCCN2C(=O)[C@H](CCC(=O)O)NC1=O)C(C)C
- pKD [3]: > 8 pkd
- t1/2 (half-life of the complex, SPR) [2]: > 15 min

B17: 3BP-4103 (peptide)
peptide: {DOTA-APAc}-VYCE[dP]NWLTWSC-NH2
modifications: linker 3-12 via mXylylene; reading uncertain
- pKD [3]: > 8 pkd
- t1/2 (half-life of the complex, SPR) [2]: > 15 min

B21: 3BP-4237 (peptide)
peptide: {DOTA-APAc″}-VYCE[dP]D[Af3(HO-Succinyl)]LTWSC-NH2
modifications: linker 3-12 via mXylylene
- pIC50 [1]: > 8 pic50

B23: 3BP-3905 (peptide)
peptide: {DOTA-APAc}-VYCE[dP]DWLTWSC-NH2
modifications: linker 3-12 via mXylylene; reading uncertain; also: ['indium complexed by DOTA']
- pKD [3]: > 8 pkd
- t1/2 (half-life of the complex, SPR) [2]: > 15 min

Continued, values first:

- pIC50 [1]: > 8 pic50
B1: 3BP-4253 (peptide)
peptide: {DOTA}-DCE[dP]DWLTW[Dap]C-NH2
modifications: lactam 10-1; linker 2-11 via mXylylene
SMILES: CC(C)C[C@@H]1NC(=O)[C@H](Cc2c[nH]c3ccccc23)NC(=O)[C@H](CC(=O)O)NC(=O)[C@H]2CCCN2C(=O)[C@H](CCC(=O)O)NC(=O)[C@@H]2CSCc3cccc(c3)CSC[C@@H](C(N)=O)NC(=O)[C@H](CNC(=O)C[C@H](NC(=O)CN3CCN(CC(=O)O)CCN(CC(=O)O)CCN(CC(=O)O)CC3)C(=O)N2)NC(=O)[C@H](Cc2c[nH]c3ccccc23)NC(=O)[C@H]([C@@H](C)O)NC1=O

- t1/2 (half-life of the complex, SPR) [2]: > 15 min
B2: 3BP-4453 (peptide)
peptide: {DOTA}-QCE[dP]D[Phe(3-NHCO(CH2)3SO2NH2)]LTWSC-NH2
modifications: linker 2-11 via mXylylene
SMILES: CC(C)C[C@@H]1NC(=O)[C@H](Cc2cccc(NC(=O)CCCS(N)(=O)=O)c2)NC(=O)[C@H](CC(=O)O)NC(=O)[C@H]2CCCN2C(=O)[C@H](CCC(=O)O)NC(=O)[C@@H](NC(=O)[C@H](CCC(N)=O)NC(=O)CN2CCN(CC(=O)O)CCN(CC(=O)O)CCN(CC(=O)O)CC2)CSCc2cccc(c2)CSC[C@@H](C(N)=O)NC(=O)[C@H](CO)NC(=O)[C@H](Cc2c[nH]c3ccccc23)NC(=O)[C@H]([C@@H](C)O)NC1=O

- t1/2 (half-life of the complex, SPR) [2]: > 15 min
B3: 3BP-4602 (peptide)
peptide: {DOTA}-QCE[dP]D[Aph(SaPr)″]LTWSC-NH2
modifications: linker 2-11 via mXylylene; also: Ga complexed in DOTA

- t1/2 (half-life of the complex, SPR) [2]: > 15 min
B4: 3BP-4788 (peptide)
peptide: {DOTA-PPAc}-QCE[dP]D[Af3(Hsfu)]LTWSC-NH2
modifications: linker 2-11 via mXylylene

- pIC50 [1]: > 8 pic50
B6: 3BP-4242 (peptide)
peptide: {DOTA-APAc″}-VYCE[dP]D[Af3(MSAc)]LTWSC-NH2
modifications: linker 3-12 via mXylylene

- pIC50 [1]: > 8 pic50
B7: 3BP-4255 (peptide)
peptide: {DOTA-PPAc}-DCE[dP]DWLTW[Dap]C-NH2
modifications: lactam 10-1; linker 2-11 via mXylylene

- pIC50 [1]: > 8 pic50
B8: 3BP-4256 (peptide)
peptide: {DOTA-Inp′}-DCE[dP]DWLTW[Dap]C-NH2
modifications: lactam 10-1; linker 2-11 via mXylylene

- pKD [3]: > 8 pkd
- t1/2 (half-life of the complex, SPR) [2]: > 15 min
B10: 3BP-4334 (peptide)
peptide: {DOTA-APAc″}-VYCE[dP]E(N4BzlCl)WLTWSC-NH2
modifications: linker 3-12 via mXylylene; reading uncertain

- pIC50 [1]: > 8 pic50
B18: 3BP-4258 (peptide)
peptide: {DOTA-4Amc}-DCE[dP]DWLTW[Dap]C-NH2
modifications: lactam 10-1; linker 2-11 via mXylylene; reading uncertain

- pIC50 [1]: > 8 pic50
B19: 3BP-4261 (peptide)
peptide: {DOTA-4Amb}-DCE[dP]DWLTW[Dap]C-NH2
modifications: lactam 10-1; linker 2-11 via mXylylene
SMILES: CC(C)C[C@@H]1NC(=O)[C@H](Cc2c[nH]c3ccccc23)NC(=O)[C@H](CC(=O)O)NC(=O)[C@H]2CCCN2C(=O)[C@H](CCC(=O)O)NC(=O)[C@@H]2CSCc3cccc(c3)CSC[C@@H](C(N)=O)NC(=O)[C@H](CNC(=O)C[C@H](NC(=O)c3ccc(CNC(=O)CN4CCN(CC(=O)O)CCN(CC(=O)O)CCN(CC(=O)O)CC4)cc3)C(=O)N2)NC(=O)[C@H](Cc2c[nH]c3ccccc23)NC(=O)[C@H]([C@@H](C)O)NC1=O

- t1/2 (half-life of the complex, SPR) [2]: > 15 min
B20: 3BP-4500 (peptide)
peptide: {DOTA-PPAc}-QCE[dP]D[Aph(SaPr)]LTWSC-NH2
modifications: linker 2-11 via mXylylene

- t1/2 (half-life of the complex, SPR) [2]: > 15 min
B22: 3BP-4790 (peptide)
peptide: {DOTA-PPAc}-QCE[dP]D[Af3(4SaPy2Ac)]LTWSC-NH2
modifications: linker 2-11 via mXylylene

- pIC50 [1]: > 8 pic50
B24: 3BP-4254 (peptide)
peptide: {DOTA-APAc″}-DCE[dP]DWLTW[Dap]C-NH2
modifications: lactam 10-1; linker 2-11 via mXylylene

- t1/2 (half-life of the complex, SPR) [2]: > 15 min
B25: 3BP-4529 (peptide)
peptide: {GaDOTA-PPAc}-QCE[dP]D[Phe(3-NHCO(CH2)3SO2NH2)]LTWSC-NH2
modifications: linker 2-11 via mXylylene; also: gallium in DOTA
notes: also called natGa-DPI-4452

- pIC50 [1]: > 8 pic50
B26: 3BP-4259 (peptide)
peptide: {DOTA-Cmp}-DCE[dP]DWLTW[Dap]C-NH2
modifications: lactam 10-1; linker 2-11 via mXylylene; reading uncertain

- pIC50 [1]: > 8 pic50
B27: 3BP-4260 (peptide)
peptide: {DOTA-3Amb}-DCE[dP]DWLTW[Dap]C-NH2
modifications: lactam 10-1; linker 2-11 via mXylylene
SMILES: CC(C)C[C@@H]1NC(=O)[C@H](Cc2c[nH]c3ccccc23)NC(=O)[C@H](CC(=O)O)NC(=O)[C@H]2CCCN2C(=O)[C@H](CCC(=O)O)NC(=O)[C@@H]2CSCc3cccc(c3)CSC[C@@H](C(N)=O)NC(=O)[C@H](CNC(=O)C[C@H](NC(=O)c3cccc(CNC(=O)CN4CCN(CC(=O)O)CCN(CC(=O)O)CCN(CC(=O)O)CC4)c3)C(=O)N2)NC(=O)[C@H](Cc2c[nH]c3ccccc23)NC(=O)[C@H]([C@@H](C)O)NC1=O
